From PMC9001736 (2022) come the findings set out here.

The target of experiment [1] is T1, ZZ domain of HERC2 (HERC2ZZ, aa 2702–2755 with additional tryptophan at the C-terminus) (human, UniProt O95714 2702-2755).
T1 chain: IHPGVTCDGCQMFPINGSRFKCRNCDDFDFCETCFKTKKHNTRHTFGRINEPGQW
The experiment is described as follows: value cited from earlier reference.

Experiment [2] deals with T2, REEE peptide (mimetic of the Nt-R cargo degradation signal).
T2 peptide: REEE

In experiment [3] the target is T3, ZZ domain of p300 (p300ZZ) (human).
T3 chain: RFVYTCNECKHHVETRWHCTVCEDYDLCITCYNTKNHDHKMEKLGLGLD
The experiment is described as follows: value cited from earlier reference.

The Kd is a measure of binding affinity in units of concentration. Lower therefore signals tighter binding. In experiment [1], ARTKQTARKSTG returned a Kd of 15 µM.

B1: p62 ZZ (protein)
chain: not shown
For B1, binding in experiment [2] was characterised by a dissociation constant (Kd) of 1.9 µM.

B2: histone H3_(1–12) peptide (aa 1–12 of H3) (peptide)
peptide: ARTKQTARKSTG
modifications: zinc-bound (2 Zn2+ expected for a ZZ finger); limits from the UniProt ZZ-type feature, construct limits not given
As to B2, in experiment [3], binding was put at a Kd of 8.8 µM.
